From article PMC5778138, “Interaction of the Morphogenic Protein RodZ with the Bacillus subtilis Min System” (Frontiers in Microbiology, 2017) come the findings set out here.

The assay concerns the target T1, His-tagged cytosolic part of MinJ, fluorescently labeled (B. subtilis, labeled with the amine-reactive red fluorescent dye NT-647 NHS).
T1 chain: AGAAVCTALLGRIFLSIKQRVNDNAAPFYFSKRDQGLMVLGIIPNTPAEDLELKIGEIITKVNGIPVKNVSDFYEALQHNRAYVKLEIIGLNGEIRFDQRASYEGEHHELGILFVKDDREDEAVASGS
The assay can be described thus: MST; NT-647-labeled His-cyt-MinJ at 34 μM, cyt-RodZ titrated from 6.7 nM to 221 μM in 16 capillaries; Monolith NT.115; the methods call the Kd preliminary. Particulars: both partners purified.

B1: His-tagged cytosolic part of RodZ (domain or fragment)
chain: VTELGIRLKEAREEKAMSLDDLQAATKIQKRYLTALEEGNYDIIPGKFYVRAFIKQYAEAVGLDADQLFEEHKKDIPNTYHDDVSEKISGMNLQKEMPKPASKALE
Consider B1, for which the affinity, expressed as Kd, was 5.1 ± 0.6 µM.

The term Kd denotes the free concentration of one partner at which half of the binding sites on the other are occupied at equilibrium, for simple one-to-one binding.
